From US20240417476A1 (ATYR PHARMA, published 2024)
Ends that are not written are not given here.

T1: NRP2b peptide (biotinylated) (human, biotin-conjugated, site not stated)
T1 construct: also called NRP2b isoform specific peptide
T1 peptide: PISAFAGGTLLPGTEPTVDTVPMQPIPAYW

T2: NRP2a_scan 1 peptide (biotinylated) (human, also: biotin-conjugated, site not given here)
T2 peptide: VDIPEIHEREGY

T3: NRP2a_scan 2 peptide (biotinylated) (human, also: biotin-conjugated, site not given here)
T3 peptide: PEIHEREGYEDE

T4: NRP2a_scan 3 peptide (biotinylated) (human, also: biotin-conjugated, site not given here)
T4 peptide: HEREGYEDEIDD

T5: NRP2a_scan 4 peptide (biotinylated) (human, also: biotin-conjugated, site not given here)
T5 peptide: EGYEDEIDDEYE

T6: NRP2a_scan 5 peptide (biotinylated) (human, also: biotin-conjugated, site not given here)
T6 peptide: EDEIDDEYEVDW

T7: NRP2a_scan 6 peptide (biotinylated) (human, also: biotin-conjugated, site not given here)
T7 peptide: IDDEYEVDWSNS

T8: NRP2a_scan 7 peptide (biotinylated) (human, also: biotin-conjugated, site not given here)
T8 peptide: EYEVDWSNSSSA

T9: Mid-NRP2A peptide (biotinylated) (human, biotin-conjugated, site not stated)
T9 peptide: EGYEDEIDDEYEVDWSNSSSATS

T10: Mid-mNRP2A peptide (biotinylated) (mouse, biotin-conjugated, site not stated)
T10 peptide: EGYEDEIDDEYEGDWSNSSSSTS

T11: human NRP2b expressed on Expi293F cells (human)
T11 construct: also called full length NRP2b
T11 chain: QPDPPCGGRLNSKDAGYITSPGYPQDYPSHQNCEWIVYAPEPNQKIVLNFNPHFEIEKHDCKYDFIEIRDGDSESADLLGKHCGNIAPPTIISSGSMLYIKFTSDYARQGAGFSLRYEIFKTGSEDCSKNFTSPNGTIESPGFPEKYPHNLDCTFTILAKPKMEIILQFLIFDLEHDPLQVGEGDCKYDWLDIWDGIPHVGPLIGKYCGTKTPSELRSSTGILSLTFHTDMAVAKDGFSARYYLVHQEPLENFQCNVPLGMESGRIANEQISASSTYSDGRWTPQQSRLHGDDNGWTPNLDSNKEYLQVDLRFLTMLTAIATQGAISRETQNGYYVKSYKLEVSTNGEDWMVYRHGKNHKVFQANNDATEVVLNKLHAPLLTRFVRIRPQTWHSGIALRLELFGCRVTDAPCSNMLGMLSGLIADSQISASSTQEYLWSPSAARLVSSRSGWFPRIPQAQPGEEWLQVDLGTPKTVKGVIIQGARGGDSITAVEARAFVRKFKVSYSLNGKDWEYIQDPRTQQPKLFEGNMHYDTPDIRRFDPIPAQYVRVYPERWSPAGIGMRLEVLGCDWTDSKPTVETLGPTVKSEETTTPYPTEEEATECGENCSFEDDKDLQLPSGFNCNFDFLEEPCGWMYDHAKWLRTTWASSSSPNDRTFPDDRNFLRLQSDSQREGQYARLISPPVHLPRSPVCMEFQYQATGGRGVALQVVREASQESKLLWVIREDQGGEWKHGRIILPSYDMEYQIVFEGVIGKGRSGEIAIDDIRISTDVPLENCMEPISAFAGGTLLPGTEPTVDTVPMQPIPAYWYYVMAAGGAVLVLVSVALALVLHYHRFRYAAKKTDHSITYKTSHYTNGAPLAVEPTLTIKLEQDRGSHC

T12: NRP2v3
T12 construct: not the NanoLuc-tagged construct m33; also called human NRP2 v3 expressed on Expi293F cells; NRP2a v3
T12 chain: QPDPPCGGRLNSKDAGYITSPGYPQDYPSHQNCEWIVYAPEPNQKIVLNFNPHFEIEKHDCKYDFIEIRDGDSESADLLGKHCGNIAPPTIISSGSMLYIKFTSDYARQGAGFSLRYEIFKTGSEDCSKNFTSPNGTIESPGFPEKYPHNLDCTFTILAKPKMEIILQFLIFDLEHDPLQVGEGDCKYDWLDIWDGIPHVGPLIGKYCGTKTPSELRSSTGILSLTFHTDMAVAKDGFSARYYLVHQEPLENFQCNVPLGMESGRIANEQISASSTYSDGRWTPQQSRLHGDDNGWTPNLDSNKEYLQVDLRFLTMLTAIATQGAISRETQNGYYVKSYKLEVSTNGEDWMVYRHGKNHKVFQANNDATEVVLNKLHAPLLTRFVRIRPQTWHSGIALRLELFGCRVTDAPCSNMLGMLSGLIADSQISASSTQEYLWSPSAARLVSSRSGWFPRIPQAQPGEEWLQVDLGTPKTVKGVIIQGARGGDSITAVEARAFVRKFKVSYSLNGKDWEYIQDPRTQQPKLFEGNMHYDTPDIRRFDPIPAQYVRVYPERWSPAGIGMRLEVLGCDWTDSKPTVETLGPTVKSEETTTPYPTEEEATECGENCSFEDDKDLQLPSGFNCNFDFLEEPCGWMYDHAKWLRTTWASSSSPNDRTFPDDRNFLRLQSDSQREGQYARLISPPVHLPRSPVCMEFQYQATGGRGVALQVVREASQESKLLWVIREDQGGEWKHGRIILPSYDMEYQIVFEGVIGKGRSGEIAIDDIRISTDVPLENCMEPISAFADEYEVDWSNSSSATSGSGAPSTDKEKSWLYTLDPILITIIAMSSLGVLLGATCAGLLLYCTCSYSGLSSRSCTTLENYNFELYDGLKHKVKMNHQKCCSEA


Assays:
[1] = target: T1, NRP2b peptide (biotinylated); assay: peptide ELISA
[2] = target: Short NRP2A peptide (biotinylated) (human, biotin-conjugated, site not stated); assay: BLI, peptide on sensor;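 further: octet RED96e biolayer interferometry with biotin-conjugated NRP2 peptides spanning isoform-specific regions (human and mouse) loaded on biosensors, antibodies applied at 50 nM, association read over 300 s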
[3] = target: T2, NRP2a_scan 1 peptide (biotinylated); assay: BLI, peptide on sensor;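 further: octet RED96e biolayer interferometry with biotin-conjugated NRP2 peptides spanning isoform-specific regions (human and mouse) loaded on biosensors, antibodies applied at 50 nM, association read over 300 s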
Protocol: (§1) Biolayer interferometry (BLI) experiments were carried out on an Octet RED96e instrument (Sartorius) to further characterize antibody affinities to the NRP2 peptides screened above. Antibodies were epitope mapped using peptides that span the NRP2a isoform specific region; antibodies were also tested for reactivity to an NRP2b isoform specific peptide and cross-reactivity to mNRP2a and mNRP2b peptides (see Table E2 for peptide sequences).
(§2) Antibodies and peptides were diluted in 1×PBS, 0.1% BSA, 0.02% Tween 20, pH 7.4. […] The biosensors were then dipped into 50 nM solutions of each antibody and read for 300s. The biosensors were regenerated in 10 mM glycine, pH 1.5 in between cycles of different antibodies.

[4] = target: T3, NRP2a_scan 2 peptide (biotinylated); assay: BLI, peptide on sensor;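 further: octet RED96e biolayer interferometry with biotin-conjugated NRP2 peptides spanning isoform-specific regions (human and mouse) loaded on biosensors, antibodies applied at 50 nM, association read over 300 s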
Protocol: as §1, §2

[5] = target: T4, NRP2a_scan 3 peptide (biotinylated); assay: BLI, peptide on sensor;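 further: octet RED96e biolayer interferometry with biotin-conjugated NRP2 peptides spanning isoform-specific regions (human and mouse) loaded on biosensors, antibodies applied at 50 nM, association read over 300 s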
Protocol: as §1, §2

[6] = target: T5, NRP2a_scan 4 peptide (biotinylated); assay: BLI, peptide on sensor
Protocol: as §1, §2

[7] = target: T6, NRP2a_scan 5 peptide (biotinylated); assay: BLI, peptide on sensor
Protocol: as §1, §2

[8] = target: T7, NRP2a_scan 6 peptide (biotinylated); assay: BLI, peptide on sensor
Protocol: as §1, §2

[9] = target: T8, NRP2a_scan 7 peptide (biotinylated); assay: BLI, peptide on sensor
Protocol: as §1, §2

[10] = target: T9, Mid-NRP2A peptide (biotinylated); assay: BLI, peptide on sensor
Protocol: as §1, §2

[11] = target: T10, Mid-mNRP2A peptide (biotinylated); assay: BLI, peptide on sensor
Protocol: as §1, §2

[12] = target: mNRP2b peptide (biotinylated) (mouse, biotin-conjugated, site not stated); assay: BLI, peptide on sensor
[13] = target: T13, mNRP2A peptide (biotinylated) (mouse, biotin-conjugated, site not stated); assay: BLI, peptide on sensor, 50 nM antibody
T13 construct: also called mouse NRP2 isoform a peptide

[14] = target: T14, NRP2A peptide (biotinylated) (human, biotin-conjugated, site not stated); assay: BLI, isoform peptide on sensor, 50 nM antibody
T14 construct: also called NPR2A; NRP2a specific peptide

[15] = target: T11, human NRP2b expressed on Expi293F cells; assay: flow cytometry, Expi293F cells transfected with the target, fluorescent anti-mouse secondary; MFI signal relative to mock-transfected cells
Protocol: (§3) Signal to noise was calculated as the staining intensity of transfected cells compared to an un-transfected ‘mock’ population.

[16] = target: T12, NRP2v3; assay: as above
Protocol: as §3

[17] = target: T6, NRP2a_scan 5 peptide (biotinylated); assay: BLI, peptide on sensor, 50 nM antibody
[18] = target: T7, NRP2a_scan 6 peptide (biotinylated); assay: BLI, peptide on sensor, 50 nM antibody
[19] = target: T9, Mid-NRP2A peptide (biotinylated); assay: BLI, peptide on sensor, 50 nM antibody
[20] = target: T15, human NRP2a v2 expressed on Expi293F cells (human, UniProt O60462 23-931); assay: flow cytometry, Expi293F cells transfected with the target, fluorescent anti-mouse secondary; MFI signal relative to mock-transfected cells
T15 construct: cDNA Origene RCC220706; also called NRP2 v2
Protocol: as §3

Chain of mNRP2b peptide (biotinylated) (mouse, biotin-conjugated, site not stated) (peptide, as listed by the source): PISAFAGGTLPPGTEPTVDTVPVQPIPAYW

| binding result [1] | binding result [2] | binding result [3] | binding result [4] | binding result [5] | binding result [6] | binding result [7] | binding result [8] | binding result [9] | binding result [10] | binding result [11] | binding result [12] | binding result [13] | binding result [14] | binding result [15] | binding result [16] | binding result [17] | binding result [18] | binding result [19] | binding result [20] | Binder |
| --- | --- | --- | --- | --- | --- | --- | --- | --- | --- | --- | --- | --- | --- | --- | --- | --- | --- | --- | --- | --- |
| no binding (tested: <3x blank) | no binding (tested: 50 nM) | no binding (tested: 50 nM) | no binding (tested: 50 nM) | no binding (tested: 50 nM) | no binding (tested: 50 nM) | no binding (tested: 50 nM) | no binding (tested: 50 nM) | no binding (tested: 50 nM) | no binding (tested: 50 nM) | no binding (tested: 50 nM) | no binding (tested: 50 nM) | binds | binds | no binding | no binding | – | – | – | binds | aNRP2-408v2 (antibody, V domains shown, Mouse monoclonal) VH: EVKLVESGGGLVKPGGSLKLSCAASGFTFSSYAMSWVRQTPEKRLEWVASISRGSITYYPDSVKGRFTISRDNAGNILYLQMSSLRSEDTAMYYCAREYYYAMDYWGQGTSVTVSS VL: DIQMTQSPSSLSASLGERVSLTCRASQDIGSRLNWLQQEPDGTIKRLIYATSSLDSGVPKRFSGSRSGSDYSLTISSLESEDFVDYYCLQYASSPYTFGGGTKLEIK |
| no binding (tested: <3x blank) | no binding (tested: 50 nM) | no binding (tested: 50 nM) | no binding (tested: 50 nM) | no binding (tested: 50 nM) | no binding (tested: 50 nM) | no binding (tested: 50 nM) | no binding (tested: 50 nM) | no binding (tested: 50 nM) | no binding (tested: 50 nM) | no binding (tested: 50 nM) | no binding (tested: 50 nM) | – | – | no binding | no binding | – | – | – | – | aNRP2-409v3 (antibody, V domains shown, Mouse monoclonal; also called 409 v2; aNRP2-409v2) VH: EVQFVETGGGLVQPKGSLKLSCAASGFTFNTNAMNWVRQAPGKGLEWVARIRTKSNNYATYYADSVKDRFTISRDDSQNILYLQMNNLKTEDTAMYYCVTLDSSGYVWFAYWGQGTLVTVSA VL: DIQMTQSPSSLSASLGERVSLTCRASQDIGSRLNWLQQEPDGTIKRLIYATSSLDSGVPKRFSGSRSGSDYSLTISSLESEDFVDYYCLQYASSPYTFGGGTKLEIK |

The remaining lines, values behind:

| Binder | binding result [1] | binding result [2] | binding result [3] | binding result [4] | binding result [5] | binding result [6] | binding result [7] | binding result [8] | binding result [9] | binding result [10] | binding result [11] | binding result [12] | binding result [13] | binding result [14] | binding result [15] | binding result [16] | binding result [17] | binding result [18] | binding result [19] | binding result [20] |
| --- | --- | --- | --- | --- | --- | --- | --- | --- | --- | --- | --- | --- | --- | --- | --- | --- | --- | --- | --- | --- |
| aNRP2-405v2 (antibody, V domains shown, Mouse monoclonal) VH: EVMLVESGGGLVKPGGSLKLSCAASGFTFRRYAMSWVRQTPEKGLEWVATITSGGSYTYYLDSVKGRITISRDNAKNTLYLQMSSLRSEDTAMYYCARHGIYGGFDYWGQGTTLTVSS VL: DVLMTQTPLSLPVSLGDQASISCRSSQSIVHSDGNTYLEWYLQKPGQSPNLLIYKVSNRFSGVPDRFSGSGSGTDFTLKISRVEAEDLGIYYCFQGSHVPFTFGSGTKLEIK | no binding (tested: <3x blank) | no binding (tested: 50 nM) | no binding (tested: 50 nM) | no binding (tested: 50 nM) | no binding (tested: 50 nM) | no binding (tested: 50 nM) | no binding (tested: 50 nM) | no binding (tested: 50 nM) | no binding (tested: 50 nM) | no binding (tested: 50 nM) | no binding (tested: 50 nM) | no binding (tested: 50 nM) | binds | binds | no binding | no binding | – | – | – | – |
| aNRP2-403v2 (antibody, V domains shown, Mouse monoclonal) VH: QVQLQQPGAELVKPGASVKLSCKASGYTFTSYWMHWVKQRPGRGLEWIGRIDPNSGDTKYNEKFKSKATLTVDKPSSTAYMQVSSLTSEDSAVYYCARSYDYALEYWGQGTSVTVSS VL: DVVMTQTPLSLPVSLGDQASISCRSSQSLVHSNGNTYLHWFLQKPGQSPNLLIYKVSNRFSGVPDRFSGSGSGTDFTLKISRVEAEDLGVYFCSQNTRVPRTFGGGTKLEIK | no binding (tested: <3x blank) | no binding (tested: 50 nM) | no binding (tested: 50 nM) | no binding (tested: 50 nM) | no binding (tested: 50 nM) | no binding (tested: 50 nM) | – | – | no binding (tested: 50 nM) | – | – | no binding (tested: 50 nM) | – | binds | – | – | binds | binds | binds | – |
